Assay results as given in the nanobody polyreactivity screen of Harvey et al. (2022).

assay: yeast display, Sf9 membrane polyspecificity reagent, FACS + sequencing; frameworks hold sequencing errors
In short: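 A nanobody's polyreactivity label depends on the gate it was sorted from. Yeast display cells were stained with 10% biotinylated, detergent-solubilized Sf9 membrane reagent for 1 hour at 4 °C, enriched on streptavidin microbeads and sorted by FACS. The low and high (top ~1%) gates were set on anti-HA fluorescence for expression and streptavidin fluorescence for reagent binding.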

Q: Which “polyreactivity (PSR sort gate)” value does the source give for “QVQLVESGGGLVQAGGSLRLSCAASGSIFGGYAMGWYRQAPGNERELVAAITYSAGNTYYADSVKGRFTISRDNAKNTVYLKMKSLKPEDTAVYYCAARTYRGPQYQYGNNYWGQGTQVTVSS” here?
A: high polyreactivity

Q: For “QVQLVESGGGLVQAGGSLRLSCAASGSIFGGYGMGWYRQAPGKERQLVAAITSGSSTYYADSVKGRFTISRDNAKNTVYLQMNSLKPEDTAVYYCAARPYPHSAYQGDYWGRGTQVTVSS”, which “polyreactivity (PSR sort gate)” value is on record?
A: low polyreactivity

Q: For “QVQLVESGGGLVQAGGSLRLSCAASGSIFGINAMGWYRPAPGKERQLVAAISGSTSRSYYADSVKGRFTISRDNAKNTVYLQMNSLKPEDTAVYYCAVVGLRSVTRRSYYWGQGTQVTVSS”, which “polyreactivity (PSR sort gate)” value is on record?
A: high polyreactivity

Q: With “QVQLVESGGGLVQAGGSLRLSCAASGSIFGIYAMGWYRQAPGKERELVAAIDSSGTSTYYADSVKGRFTISRDNAKNTVYLQMNSLKPEDTAVYYCAAYHRISKNNYLGQGTQVTVSS” as the sequence, how does the “polyreactivity (PSR sort gate)” value read?
A: low polyreactivity

Q: For “QVQLVESGGGLVQAGGSLRLSCAASGSIFGIYTMGWYRQAPGKERELVAAITSVGSTNYADSVKGRFTISRDNAKNTVYLQMNSLKPEDTAGYYCARASAWYVTLVGKYTKYDYWGQGTQVTVSS”, which “polyreactivity (PSR sort gate)” value is on record?
A: low polyreactivity

Q: With “QVQLVESGGGLVQAGGSLRLSCAASGSIFGIYVMGWYRQAPGKERELVAGISTRGGSTYYADSVKGRFTISRDNAKNTVYLQMNSLKPEDTAVYYCAAVPASYRYPMYYWGQGTQVNVSS” as the sequence, how does the “polyreactivity (PSR sort gate)” value read?
A: low polyreactivity

Q: Which “polyreactivity (PSR sort gate)” value does the source give for “QVQLVESGGGLVQAGGSLRLSCAASGSIFGKDAMVWYRQAPGKEREFVAGIRGSGTRTYYADSVKGRFTISRDNAKNTVYLQLNSLKPEDTAVYYCNAVFGYRGPYYYWGQGTQVTVSS” here?
A: high polyreactivity

Q: Which “polyreactivity (PSR sort gate)” value does the source give for “QVQLVESGGGLVQAGGSLRLSCAASGSIFGKNAMGWYRPAPGKERELVAAITRRGGSTYYADSVKGRFTISRDNAKNTVYLQMISLKPEDTAVYYCNALLTGGYQDSYPDDYWGQGTQVTVSS” here?
A: high polyreactivity

Q: Which “polyreactivity (PSR sort gate)” value does the source give for “QVQLVESGGGLVQAGGSLRLSCAASGSIFGKNVMGWYRQAPGKERELVAAISRSGGRTYYADSVKGRFTISRDNAKNTVYLQMNSLKPEDTAVYYCAADGQPIGQQTYDYWGQGTQVTVSS” here?
A: high polyreactivity

Q: With “QVQLVESGGGLVQAGGSLRLSCAASGSIFGKYAMGWYRQAPAKERELVAAISDSGSITYYADSVKGRFTISRDNAKNTVYLQMNSLKPEDTAVYYCAAEVKYYQSFKYDYWGQGTQVTVSS” as the sequence, how does the “polyreactivity (PSR sort gate)” value read?
A: high polyreactivity

Q: For “QVQLVESGGGLVQAGGSLRLSCAASGSIFGKYAMGWYRQAPGKERELVAAISWSGGSTYYADSVKGRFTISRDNAKNTVYLQMNSLKPEDTAVYYCAKRRVYYGSRYNYWGQGTQVTVSS”, which “polyreactivity (PSR sort gate)” value is on record?
A: high polyreactivity

Q: With “QVQLVESGGGLVQAGGSLRLSCAASGSIFGKYAMGWYRQAPGKERELVAAITIRGGSTYYADSVKGRFTISRDNAKNTVYLQMNSLKPEDTAVYYCNAVSKYYFGVDYWGQGTQVTVSS” as the sequence, how does the “polyreactivity (PSR sort gate)” value read?
A: high polyreactivity

Q: For “QVQLVESGGGLVQAGGSLRLSCAASGSIFGLNAMGCYRQAPGKERELVAAISGGSTNYADSVKGRFTISRDNAKNTVYLQMNSLKPEDTAVYYCAARARRRYYYWGQGTQVTVSS”, which “polyreactivity (PSR sort gate)” value is on record?
A: high polyreactivity

Q: Which “polyreactivity (PSR sort gate)” value does the source give for “QVQLVESGGGLVQAGGSLRLSCAASGSIFGLYAMGWYRQAPGKERELVAAISSSGGTTYYADSVKGRFTISRDNEKNTVYLQMNSLKPEDTAVYYCATDYYDDVTIGYDYWGQGTQVTVSS” here?
A: low polyreactivity

Q: With “QVQLVESGGGLVQAGGSLRLSCAASGSIFGLYAMGWYRQAPGKERELVAAITDSTGSTSYADSVKGRFTISRDNAKNTVYLQMNSLKPEDTAVYYCAAGQGRWRHGFDYWGQGTQVTVSS” as the sequence, how does the “polyreactivity (PSR sort gate)” value read?
A: low polyreactivity

Q: With “QVQLVESGGGLVQAGGSLRLSCAASGSIFGLYAMGWYRQAPGKERELVARITRSGGRTYYADSVKGRFTISRDNAKNTVYLQMNSLKPEDTAVYYCNKLLPSYVLPDDYWGQGTQVTVSS” as the sequence, how does the “polyreactivity (PSR sort gate)” value read?
A: low polyreactivity

Q: Which “polyreactivity (PSR sort gate)” value does the source give for “QVQLVESGGGLVQAGGSLRLSCAASGSIFGNYVMGWYRQAPGKERELVAAIRWTGGSTYYADSVKGRFTISRDNAKNTVYLQMNSLKAEDTAVYYSIADSSDDYDYWGQGTQVTVSS” here?
A: low polyreactivity

Q: With “QVQLVESGGGLVQAGGSLRLSCAASGSIFGPNAMGWYRQSPGKERELVAAISWGGGSTYYADSVKARITISRDNAINTVYLQMNILKPEDTGVYYCNASGYHDTAVRYDYWGQGTQVTVSS” as the sequence, how does the “polyreactivity (PSR sort gate)” value read?
A: low polyreactivity

Q: For “QVQLVESGGGLVQAGGSLRLSCAASGSIFGPYAMGWYRQAPGKERELVAAISTRGGRTYYADSVKGRFTISRDNAKNTVYLQMISLKPEDTAVYYCNDRRSDSRSYDYWGQGTQVTVSS”, which “polyreactivity (PSR sort gate)” value is on record?
A: high polyreactivity

Q: With “QVQLVESGGGLVQAGGSLRLSCAASGSIFGPYAMGWYRQAPGKERELVATITSGGRTYYADSVKGRFTISRDNAKNTVYLQLNSLKPEDTAVYYCAAAGKGRYHFRSTMDYWGQGTQVTVSS” as the sequence, how does the “polyreactivity (PSR sort gate)” value read?
A: high polyreactivity

Q: With “QVQLVESGGGLVQAGGSLRLSCAASGSIFGPYAMGWYRQAPGKERELVAVISRSGGSTYYADSVKGRFTISRDNAKNTVYLQMNSLKPEDTAVYYCAAYRGPRADYYWGQGTHVTVSS” as the sequence, how does the “polyreactivity (PSR sort gate)” value read?
A: high polyreactivity

Q: With “QVQLVESGGGLVQAGGSLRLSCAASGSIFGPYAMGWYRQAPWKERELVATSTYYADSVKGRFTISRDNAKNTVYLQMNSLKPEDTAVYYCAKTPYYSGYGWGYDYWGQGTQVTVSS” as the sequence, how does the “polyreactivity (PSR sort gate)” value read?
A: low polyreactivity

Q: For “QVQLVESGGGLVQAGGSLRLSCAASGSIFGPYVMGWYRQAPGKERELVAAISKSGGSTYYADSVKGRFTISRDNAKNTVYLQMNSLKPEDTAVYYCATDYLGGGKRYYYWGQGTQVTVSS”, which “polyreactivity (PSR sort gate)” value is on record?
A: high polyreactivity

Q: For “QVQLVESGGGLVQAGGSLRLSCAASGSIFGPYVMGWYRQAPGKERELVAAITFSGGSTYYADSVKGRFTISRDNAKNTVYLQMNSLKPEDTAVYYCNARPYSYRGSKRMYYWGQGTQVTVSS”, which “polyreactivity (PSR sort gate)” value is on record?
A: high polyreactivity

Q: Which “polyreactivity (PSR sort gate)” value does the source give for “QVQLVESGGGLVQAGGSLRLSCAASGSIFGQYAMGWYRQAPGKERELVASISASAASTYYADSVKGRFTISRDNAMNTVYLQLNSLKPEDTAVYYCNATTRWIGYVTIDFDYWGQGTQVNVSS” here?
A: low polyreactivity

Q: Which “polyreactivity (PSR sort gate)” value does the source give for “QVQLVESGGGLVQAGGSLRLSCAASGSIFGRNAKGWYRQAPRKERELVAAINSGGSTNYADSVKGRFTISRDNAKNTVYLQMNSLKPEDTAVYYCAARTYSSGRYYGYVAFYYWGQGTQVTVSS” here?
A: high polyreactivity

Q: For “QVQLVESGGGLVQAGGSLRLSCAASGSIFGRNAMGWSRQAPGTERELVARISSRGGSTYYADSVKGRFTISRDNAKNTVYLQMNSLKPEDTAVYYCNRDRTWQTNDYWGQGTQVTVSS”, which “polyreactivity (PSR sort gate)” value is on record?
A: high polyreactivity

Q: For “QVQLVESGGGLVQAGGSLRLSCAASGSIFGRNAMGWYRQAPGKERELVAAITWRTGSTFYADSVKGRFTISRDNAKNTVYLQMNCLKPEDTAVYYCNAAGPAYSYYHWLWGDYNSWRQGTQVTVSS”, which “polyreactivity (PSR sort gate)” value is on record?
A: low polyreactivity

Q: For “QVQLVESGGGLVQAGGSLRLSCAASGSIFGRNAMGWYRQAPGKERELVAGMFYADSEKGRFTISRDNAKNTVYLQMNSLKPEDTAVYYCNADGTTDISNDNWYGYWGQGTQVTVSS”, which “polyreactivity (PSR sort gate)” value is on record?
A: low polyreactivity

Q: Which “polyreactivity (PSR sort gate)” value does the source give for “QVQLVESGGGLVQAGGSLRLSCAASGSIFGRNTMGWYRPAPGKERELVAAISSGGRTYYADSVKGRFTISRDNAKITVYLQINSLKPEDTAVYYCAAALRRRRADFDYWGQGTQVTVSS” here?
A: high polyreactivity
